The subject of this assay is BMDM. The assay can be described thus: qRT-PCR of BMDM (palmitate, cytokines, adipocyte conditioned media). It counts as cell-based, mouse. The settings on record: direct addition of cytokine. Here is the method:
Real-time Quantitative RT-PCR Analysis RNA (0.5-1 μg) was reverse transcribed using iScript™ cDNA Synthesis Kit (Biorad) and RT-PCR analysis was conducted using kapa SYBR green Supermix (kappa syber) and a Mastercycler Realplex (Eppendorf) the primers used are listed. Fold change in mRNA expression was calculated using the comparative cycle method (ΔΔCt).
Cell culture. Primary bone marrow derived macrophage (BMDM) was prepared by flushing the bone marrow of the tibia and femur of 6-8 week old C57/B6 mice. The cells were grown in DMEM supplemented with 15% L929-conditioned media, 10% FBS and 1% penicillin/streptomycin for 7 days. BMDM were stimulated 250 pM palmitate conjugated with BSA or BSA as a control for 24 hours, or TNFα (10 ng/ml, 410-MT-010; R&D systems), IL-6 (40 nglml, 406-ML-005; R&D systems) and IL-4 (1 Onglml, 404-ML-010; R&D systems) for 24 h. In some assays, differentiated BMDM were treated with conditioned media from 3T3-L1 adipocytes differentiated as described (Lin, et al., J Biol Chem, 2005; 280:4617-4626) and treated with 250 pM palmitate conjugated with BSA or BSA for 24 hours. In certain experiments, anti-TNFα (0.4 μg/ml, AF-410-NA, R&D systems) or anti-IL-6 (0.025 μg/ml, MAB406; R&D systems) blocking antibody or IgG control (Normal Goat IgG: AB-108-C, Rat IgG1: MAB005; R&D systems) was added to conditioned media. […]
(In general: In qPCR the cycle at which signal appears reflects the starting amount.)

B1: IL-6: cytokine, 406-ML-005 R&D systems (protein, UniProt P08505 25-211, looked up)
Interleukin-6: FPTSQVRRGDFTEDTTPNRPVYTTSQVGGLITHVLWEIVEMRKELCNGNSDCMNNDDALAENNLKLPEIQRNDGCYQTGYNQEICLLKISSGLLEYHSYLEYMKNNLKDNKKDKARVLQRDTETLIHIFNQEVKDLHKIVLPTPISNALLTDKLESQKEWLRTKTIQFILKSLEEFLKVTLRSTRQT
B1: the “Ntn1 mRNA in BMDMs” value was “increased Ntn1 mRNA”.

The values above are taken from US20210113687A1, “METHODS FOR TREATING INFLAMMATION” (NEW YORK UNIVERSITY, priority 2013, published 2021).
